Measured values as given in patent CN110420334A, “一种药物缀合物和提高药物分子半衰期的方法” (Jiangnan University, priority 2019, dated 2019).
Read-outs that look alike come from different tables or passages of the source. Non-standard residues stand in square brackets, D forms with d. No end group written: not given here. pGlu = O=C1CC[C@@H](C(=O)O)N1

Assays:
[1] = molecular target: T1, LHRH受体 (Homo sapiens, UniProt P30968); assay: Competitive flow cytometry against fluorescent anti-LHRH receptor antibody (Example 4); format: binding; details: MCF7 (LHRH high), 250nM, on ice 1h
T1 construct: MCF7(LHRH高表达)，UCI107(LHRH不表达); endogenous in cells; host or cells: MCF7 (positive), UCI107 (negative)
T1 sequence (P30968 1-328): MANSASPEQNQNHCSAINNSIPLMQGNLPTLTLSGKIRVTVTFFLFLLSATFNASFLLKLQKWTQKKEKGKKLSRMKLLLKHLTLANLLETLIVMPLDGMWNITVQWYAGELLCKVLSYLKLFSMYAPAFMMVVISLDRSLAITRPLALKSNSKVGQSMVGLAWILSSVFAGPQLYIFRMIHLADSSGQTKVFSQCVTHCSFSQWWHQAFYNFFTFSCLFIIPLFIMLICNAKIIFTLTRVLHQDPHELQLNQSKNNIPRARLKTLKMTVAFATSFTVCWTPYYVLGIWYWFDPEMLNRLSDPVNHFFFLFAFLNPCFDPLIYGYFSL

[2] = mouse, in vivo
[3] = molecular target: T2, CD13 (Homo sapiens, UniProt P15144); assay: Competitive flow cytometry against fluorescent anti-CD13 antibody (Example 5); format: binding; details: HUVEC (CD13 high), 250nM, on ice 1h
T2 construct: HUVEC(CD13高表达)，MCF7(CD13不表达); endogenous in cells; host or cells: HUVEC (positive), MCF7 (negative)
T2 sequence (P15144 whole entry): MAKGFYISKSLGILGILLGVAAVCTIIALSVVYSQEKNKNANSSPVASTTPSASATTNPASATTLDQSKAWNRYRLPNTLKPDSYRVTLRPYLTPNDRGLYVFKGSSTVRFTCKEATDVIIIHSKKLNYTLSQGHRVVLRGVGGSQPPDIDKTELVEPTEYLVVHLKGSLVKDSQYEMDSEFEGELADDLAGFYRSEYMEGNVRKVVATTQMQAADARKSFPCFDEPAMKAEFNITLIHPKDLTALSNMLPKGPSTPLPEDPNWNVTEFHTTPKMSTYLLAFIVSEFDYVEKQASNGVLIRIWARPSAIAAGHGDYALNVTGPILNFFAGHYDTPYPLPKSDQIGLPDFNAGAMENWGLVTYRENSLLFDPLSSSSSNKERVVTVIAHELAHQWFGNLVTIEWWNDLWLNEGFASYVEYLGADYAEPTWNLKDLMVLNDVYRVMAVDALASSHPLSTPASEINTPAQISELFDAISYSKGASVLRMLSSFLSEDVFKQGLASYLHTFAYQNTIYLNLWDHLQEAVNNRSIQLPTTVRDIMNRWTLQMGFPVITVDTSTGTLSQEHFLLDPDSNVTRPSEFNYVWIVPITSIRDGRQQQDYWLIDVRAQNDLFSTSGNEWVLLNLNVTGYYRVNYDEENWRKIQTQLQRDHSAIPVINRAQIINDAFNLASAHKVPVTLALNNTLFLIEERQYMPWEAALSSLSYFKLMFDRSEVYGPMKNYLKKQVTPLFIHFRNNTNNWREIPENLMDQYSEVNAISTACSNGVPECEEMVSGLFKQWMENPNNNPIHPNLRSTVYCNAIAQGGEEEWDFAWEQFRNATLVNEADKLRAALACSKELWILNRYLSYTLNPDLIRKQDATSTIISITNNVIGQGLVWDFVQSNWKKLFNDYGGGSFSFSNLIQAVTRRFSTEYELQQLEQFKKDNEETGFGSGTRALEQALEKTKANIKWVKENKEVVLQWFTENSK

competitive inhibition of anti-LHRH receptor antibody binding to LHRH receptor [1] | competitive inhibition of anti-CD13 antibody binding to HUVEC [3] | Substance | serum half-life [2] | serum half-life ([2]; iv)
竞争性抑制 | – | Glp-His-Trp-Ser-Tyr-D-Lys-Leu-Arg-Pro-Gly-NH2 (chain 1 [pGlu]HWSY; chain 2 [dK]LRPG-NH2; numbers in words are those of the source; also: chains 1 and 2 are one continuous chain (Tyr-D-Lys peptide bond)) [LHRH] | 2.2 min | 2.6 min
– | 竞争性抑制 | NGR-DNP: cyclic NGR peptide (chain GGGCNGRC) coupled with DNP by amide condensation (not fully specified (bridges); cysteine pairing not given here; also: DNP conjugated by amide condensation, position not given here) | – | –
